Our source for the Kd values is article PMC6053351.

In experiment [1] the target is RBBP4 Glu126Ala/Asn128Ala/Glu179Ala (UniProt Q09028). As to the kind of experiment: ITC; AEBP2 ZF1–3 titrated into RBBP4; one-site binding model, Origin 7.
The target of experiment [2] is RBBP4, full-length, wild type (UniProt Q09028). The experiment is described as above.
RBBP4, full-length, wild type, sequence (Q09028 whole entry): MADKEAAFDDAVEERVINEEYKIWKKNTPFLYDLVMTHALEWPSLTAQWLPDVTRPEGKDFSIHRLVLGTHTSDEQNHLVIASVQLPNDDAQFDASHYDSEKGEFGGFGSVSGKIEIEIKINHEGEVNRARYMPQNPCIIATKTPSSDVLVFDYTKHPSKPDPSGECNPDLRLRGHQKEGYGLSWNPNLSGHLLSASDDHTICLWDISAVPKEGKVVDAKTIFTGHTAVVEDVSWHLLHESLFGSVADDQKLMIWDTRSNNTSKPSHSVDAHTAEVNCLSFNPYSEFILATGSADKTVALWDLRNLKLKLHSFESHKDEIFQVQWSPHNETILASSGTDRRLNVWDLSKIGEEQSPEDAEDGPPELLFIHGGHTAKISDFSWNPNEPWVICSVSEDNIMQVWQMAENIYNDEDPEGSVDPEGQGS

RBBP4 Glu126Ala/Asn128Ala/Glu179Ala, sequence (Q09028 whole entry E126A/N128A/E179A): as the sequence (Q09028 whole entry) above, with E126A, N128A, E179A counted along it

Take “AEBP2 ZF1–3 (three zinc fingers, residues Asn258–Gln357) (domain or fragment)”: the Kd in experiment [1] was 16 µM; in experiment [2], 10.1 µM.

For orientation: Kd means the equilibrium constant for the complex coming apart.
